Sequences and labels used below:
T1: EsCas13d, nuclease-dead (Eubacterium siraeum, UniProt B0MS50, R295A;H300A;R849A;H854A)
T1 sequence: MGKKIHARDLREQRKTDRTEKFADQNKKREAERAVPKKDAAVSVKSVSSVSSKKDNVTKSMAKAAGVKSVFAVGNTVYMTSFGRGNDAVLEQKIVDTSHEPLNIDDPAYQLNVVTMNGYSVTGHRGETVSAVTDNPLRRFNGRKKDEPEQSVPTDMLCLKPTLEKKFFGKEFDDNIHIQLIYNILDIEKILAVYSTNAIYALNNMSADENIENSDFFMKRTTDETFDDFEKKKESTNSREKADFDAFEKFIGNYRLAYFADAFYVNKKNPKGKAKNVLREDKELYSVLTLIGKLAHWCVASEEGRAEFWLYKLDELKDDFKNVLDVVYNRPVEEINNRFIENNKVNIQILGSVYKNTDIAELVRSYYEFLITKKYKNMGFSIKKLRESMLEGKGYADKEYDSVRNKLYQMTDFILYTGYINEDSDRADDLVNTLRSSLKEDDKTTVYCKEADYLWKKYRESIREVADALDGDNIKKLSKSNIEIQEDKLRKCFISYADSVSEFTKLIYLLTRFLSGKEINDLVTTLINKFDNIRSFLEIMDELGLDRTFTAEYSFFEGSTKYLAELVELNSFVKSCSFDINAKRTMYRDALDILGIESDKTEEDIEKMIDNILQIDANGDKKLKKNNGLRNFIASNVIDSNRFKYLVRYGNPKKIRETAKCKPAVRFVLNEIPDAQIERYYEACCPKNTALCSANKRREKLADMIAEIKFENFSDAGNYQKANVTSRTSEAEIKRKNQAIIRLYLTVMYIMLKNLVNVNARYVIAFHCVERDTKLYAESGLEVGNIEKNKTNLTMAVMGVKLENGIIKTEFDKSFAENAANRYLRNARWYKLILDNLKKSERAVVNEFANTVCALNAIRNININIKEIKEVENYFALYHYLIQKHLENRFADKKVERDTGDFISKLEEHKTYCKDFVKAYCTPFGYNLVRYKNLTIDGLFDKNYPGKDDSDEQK

B1: target 1 A9G,A18C (mixed)
RNA 1: CACCCGUGCAAAAAUGCAGGGGUCUAAAACUGAGCGGAUAACCUCUCUAUGG
RNA 2: GGGAAUGGAUCCACAUCUACGAAUUCGUACCAUCGAGAGGUUGUCCGCUCACCGAGAUCGGAAGAGCACACGU
B2: target 1 U19C,C21U (mixed)
RNA 1: B1 RNA 1
RNA 2: B1 RNA 2 with C31U, U33C, C34A, G43A
B3: target 1 U10G,U19G (mixed)
RNA 1: B1 RNA 1
RNA 2: B1 RNA 2 with U33G, C34A, U42G, G43A
B4: target 1 insG 3' of 16,insA 3' of 15 (mixed)
RNA 1: B1 RNA 1
RNA 2: GGGAAUGGAUCCACAUCUACGAAUUCGUACCAUAGAGGAAGGUUAUCCGCUCACCGAGAUCGGAAGAGCACACGU
B5: target 1 insA 3' of 22,insC 3' of 14 (mixed)
RNA 1: B1 RNA 1
RNA 2: B4 RNA 2 with C31A, A32C, U33A, A34U, G35A, A36G, G37A, A40C
B6: target 1 insC 3' of 16,insC 3' of 16 (mixed)
RNA 1: B1 RNA 1
RNA 2: B4 RNA 2 with G37C, G38C, A39G
B7: target 1 C4A,U11A (mixed)
RNA 1: B1 RNA 1
RNA 2: B1 RNA 2 with C34A, U41A, G43A, C48A
B8: target 1 insU 3' of 9,insA 3' of 8 (mixed)
RNA 1: B1 RNA 1
RNA 2: B4 RNA 2 with G38A, A39G, A40G, G41U, G42U, U43A, A45U, U46A
B9: target 1 C4A,C22U (mixed)
RNA 1: B1 RNA 1
RNA 2: B1 RNA 2 with C30U, C34A, G43A, C48A
B10: target 1 insA 3' of 12,insG 3' of 11 (mixed)
RNA 1: B1 RNA 1
RNA 2: B4 RNA 2 with G38A, A39G, A40G, G41A, G42U, U43G
B11: target 1 G5U,C6A (mixed)
RNA 1: B1 RNA 1
RNA 2: B1 RNA 2 with C34A, G43A, C46A, G47U
B12: target 1 A9C,A16G (mixed)
RNA 1: B1 RNA 1
RNA 2: B1 RNA 2 with C34A, A36G, G43C
B13: target 1 insG 3' of 14,insG 3' of 6 (mixed)
RNA 1: B1 RNA 1
RNA 2: B4 RNA 2 with G38A, A39G, A40G, G42U, U44A, A45U, U46C, C48G
B14: target 1 U8A,A9C (mixed)
RNA 1: B1 RNA 1
RNA 2: B1 RNA 2 with C34A, G43C, U44A
B15: target 1 insU 3' of 18,insC 3' of 13 (mixed)
RNA 1: B1 RNA 1
RNA 2: B4 RNA 2 with G35U, A36G, G37A, A40G, G41C
B16: target 1 A9G,U19G (mixed)
RNA 1: B1 RNA 1
RNA 2: B1 RNA 2 with U33G, C34A
B17: target 1 insG 3' of 18,insG 3' of 8 (mixed)
RNA 1: B1 RNA 1
RNA 2: B4 RNA 2 with A36G, G37A, A40G, G42U, U44A, A45U, U46G
B18: target 1 insC 3' of 5,insA 3' of 2 (mixed)
RNA 1: B1 RNA 1
RNA 2: GGGAAUGGAUCCACAUCUACGAAUUCGUACCAUAGAGAGGUUAUCCGCCUCAACCGAGAUCGGAAGAGCACACGU
B19: target 1 C4A,G5A (mixed)
RNA 1: B1 RNA 1
RNA 2: B1 RNA 2 with C34A, G43A, G47A, C48A
B20: target 1 C2G,U11A (mixed)
RNA 1: B1 RNA 1
RNA 2: B1 RNA 2 with C34A, U41A, G43A, C50G
B21: target 1 insU 3' of 20,insG 3' of 14 (mixed)
RNA 1: B1 RNA 1
RNA 2: B4 RNA 2 with A34U, G35A, A36G, G37A, A40G
B22: target 1 G17C,C21U (mixed)
RNA 1: B1 RNA 1
RNA 2: B1 RNA 2 with C31U, C34A, G35C, G43A
B23: target 1 G12U,U19G (mixed)
RNA 1: B1 RNA 1
RNA 2: B1 RNA 2 with U33G, C34A, G40U, G43A
B24: target 1 C6G,A20C (mixed)
RNA 1: B1 RNA 1
RNA 2: B1 RNA 2 with A32C, C34A, G43A, C46G
B25: target 1 G15A,U19A (mixed)
RNA 1: B1 RNA 1
RNA 2: B1 RNA 2 with U33A, C34A, G37A, G43A
B26: target 1 C6G,C7U (mixed)
RNA 1: B1 RNA 1
RNA 2: B1 RNA 2 with C34A, G43A, C45U, C46G
B27: target 1 insG 3' of 4,insG 3' of 2 (mixed)
RNA 1: B1 RNA 1
RNA 2: B18 RNA 2 with C49G, A52G
B28: target 1 insU 3' of 14,insG 3' of 8 (mixed)
RNA 1: B1 RNA 1
RNA 2: B4 RNA 2 with G38A, A39U, A40G, G42U, U44A, A45U, U46G
B29: target 1 C4A,U10C (mixed)
RNA 1: B1 RNA 1
RNA 2: B1 RNA 2 with C34A, U42C, G43A, C48A

Numbering of substitutions follows the chain as printed. Numbers in names are those of the source.

The series has as its target T1, EsCas13d, nuclease-dead. The series can be described thus: crRNA (strand 1, pre-loaded); Mg2+; 40 mM Tris-HCl pH 7.5, 150 mM NaCl, 6 mM MgCl2, 1 mM DTT, 0.1% Tween-20, 0.2 mg/ml BSA; 25 C; 10 min per concentration, then washed. The conditions noted are these: tags: His6-TwinStrep-SUMO cleaved; N-terminal SNAP kept (SNAP-Surface 488); label: 3' end held by stalled T7 RNA polymerase.
Consider B1, for which the Kd – broadly, the concentration at which binding is half-saturated – turned out to be 64 ± 7 nM.

As for B2, the equilibrium dissociation constant (Kd) came out at 5.98 ± 0.2 nM.

Turning to B3, the Kd was 90 ± 40 nM.

Regarding B4, the affinity, expressed as Kd, was 17.5 ± 0.9 nM.

As for B5, the Kd came to 36 ± 6 nM.

In turn, B6 yielded a Kd of 72 ± 22 nM.

B7 registered a Kd of 23.9 ± 1.8 nM.

The molecule B8 registered a Kd of 9.8 ± 0.4 nM.

Molecule B9 yielded an equilibrium dissociation constant (Kd) of 9.2 ± 1 nM.

As for B10, the affinity, expressed as Kd, was 49 ± 6 nM.

Take B11: the affinity, expressed as Kd, was 24.3 ± 1.6 nM.

In turn, B12 had a Kd of 68 ± 27 nM.

With B13, binding was characterised by a dissociation constant (Kd) of 10.7 ± 0.9 nM.

The molecule B14 returned a Kd of 8.9 ± 0.4 nM.

With B15, the Kd came to 49 ± 7 nM.

For the molecule B16, the Kd was 49 ± 14 nM.

On to B17, for which the dissociation constant Kd was 50 ± 4 nM.

In turn, B18 gave a Kd of 7.87 ± 0.33 nM.

Molecule B19 displayed a dissociation constant Kd of 44 ± 7 nM.

In the case of B20, binding was characterised by a dissociation constant (Kd) of 13.6 ± 1.1 nM.

With B21, the equilibrium dissociation constant (Kd) amounted to 18.9 ± 0.9 nM.

B22 had a Kd of 7.6 ± 0.7 nM.

Consider B23, for which the Kd was 35 ± 5 nM.

With B24, the Kd turned out to be 36 ± 6 nM.

Turning to B25, the Kd is 60 ± 19 nM.

In turn, B26 gave a Kd of 8.06 ± 0.32 nM.

In turn, B27 registered a Kd of 4.72 ± 0.29 nM.

As to B28, the dissociation constant (Kd) stood at 38.1 ± 2.5 nM.

B29: the Kd came to 5.53 ± 0.31 nM.

The record behind these values is article PMC10786891, “Massively parallel profiling of RNA-targeting CRISPR-Cas13d”.
